Assay in all cases: cryo-EM structure
Test [1] addresses D7324-tagged Delta S (soluble SARS-CoV-2 Delta spike, 6P version) (SARS-CoV-2) (UniProt P0DTC2).
The target in test [2] is His-tagged BA.1 S (soluble SARS-CoV-2 Omicron BA.1 spike, 6P version) (SARS-CoV-2) (UniProt P0DTC2).
Test [3] deals with StrepII-tagged Wu1 S (soluble SARS-CoV-2 Wuhan-Hu-1 spike, 6P version) (SARS-CoV-2) (UniProt P0DTC2).

As usually defined, the stoichiometry N is the number of molecules, sites or subunits per partner or assembly.

With “D7324-tagged Delta S (soluble SARS-CoV-2 Delta spike, 6P version) (from UniProt P0DTC2 14-1273) (natural protein)”, the stoichiometry N in test [1] turned out to be 3.

Turning to “His-tagged BA.1 S (soluble SARS-CoV-2 Omicron BA.1 spike, 6P version) (from UniProt P0DTC2 14-1273) (natural protein)”, the stoichiometry N in test [2] is 3.

Substance “StrepII-tagged Wu1 S (soluble SARS-CoV-2 Wuhan-Hu-1 spike, 6P version) (from UniProt P0DTC2 14-1273) (natural protein)” showed a stoichiometry N in test [3] of 3.
